Assay results: article PMC7671035 (mAbs, 2020)

B1: LY3041658 (antibody, V domains shown)
VH: QVQLVQSGAEVKKPGASVKVSCKASGYEFTSYWIHWVRQAPGQGLEWMGNISPNSGSANYNEKFKSRVTMTRDTSTSTVYMELSSLRSEDTAVYYCAREGPYSYYPSREYYGSDLWGQGTLVTVSS
VL: EIVLTQSPATLSLSPGERATLSCRASQSISNNLHWYQQKPGQAPRLLIYYTSRSVSGIPARFSGSGSGTDFTLTISSLEPEDFAVYYCGQNNEWPEVFGGGTKVEIK
B2: 1581 (antibody, V domains shown)
VH: QVHVKQSGAELVKPGASVRLSCTASGYTFTSYWMHWVKQRPGQGLEWIGNINPNSGSANYNEKFKSKATLTVDTSSSTAYMQLSSLTSEDSAVYYCTREGPYSYYPVRVYYGLDYWGQGTSVTVSS
VL: DIVLTQSPATLSVTPGDRVSLSCRASQSISNNLHWYQQKSHESPRLLIKYTSQSVSGIPSRFSASGSGTDFTLSINSVETEDFGMYFCQQSNSWPLTFGAGTKLELK

How the values were obtained:
mouse CXCL1 = mouse CXCL1 (Mus musculus, UniProt P12850); test: SPR
mouse CXCL3 = mouse CXCL3 (Mus musculus, UniProt Q6W5C0); test: SPR
mouse CXCL2 = mouse CXCL2 (Mus musculus, UniProt P10889); test: SPR
rat CXCL2 = rat CXCL2 (Rattus norvegicus, UniProt P30348); test: SPR
rat CXCL1 = rat CXCL1 (Rattus norvegicus, UniProt P14095); test: SPR
rat CXCL3 = rat CXCL3 (Rattus norvegicus, UniProt Q10746); test: SPR
human CXCL13 = human CXCL13 (Homo sapiens (Human)., UniProt O43927); test: ELISA
human CXCL16 = human CXCL16 (Homo sapiens, UniProt Q9H2A7); test: ELISA
human CXCL17 = human CXCL17 (Homo sapiens, UniProt Q6UXB2); test: ELISA
human CXCL10 = human CXCL10 (Homo sapiens (Human)., UniProt P02778); test: ELISA
human CXCL12 = human CXCL12 (Homo sapiens, UniProt P48061); test: ELISA
human CXCL4 = human CXCL4 (Homo sapiens (Human)., UniProt P02776); test: ELISA
human CXCL14 = human CXCL14 (Homo sapiens, UniProt O95715); test: ELISA
human CXCL1 = human CXCL1 (Homo sapiens, UniProt P09341)
Chain of human CXCL1 (P09341 35-107): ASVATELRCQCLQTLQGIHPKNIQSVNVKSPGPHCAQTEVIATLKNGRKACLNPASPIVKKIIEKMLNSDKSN

Chain of mouse CXCL2 (P10889 28-100): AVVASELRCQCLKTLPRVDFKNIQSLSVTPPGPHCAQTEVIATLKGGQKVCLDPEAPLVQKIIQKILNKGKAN
Chain of human CXCL17 (Q6UXB2 22-119): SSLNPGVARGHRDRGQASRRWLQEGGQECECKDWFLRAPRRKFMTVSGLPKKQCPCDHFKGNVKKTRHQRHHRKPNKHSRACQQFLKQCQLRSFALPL
Chain of mouse CXCL1 (P12850 25-96): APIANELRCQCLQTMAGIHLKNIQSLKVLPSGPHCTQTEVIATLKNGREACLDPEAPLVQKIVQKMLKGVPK
Chain of human CXCL16 (Q9H2A7 30-254): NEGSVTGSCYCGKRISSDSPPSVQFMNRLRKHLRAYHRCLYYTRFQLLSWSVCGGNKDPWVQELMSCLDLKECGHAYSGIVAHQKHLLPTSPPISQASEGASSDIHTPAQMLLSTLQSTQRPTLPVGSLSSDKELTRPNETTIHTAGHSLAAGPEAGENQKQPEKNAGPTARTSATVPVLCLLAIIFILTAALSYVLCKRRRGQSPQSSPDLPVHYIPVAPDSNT
Chain of mouse CXCL3 (Q6W5C0 32-100): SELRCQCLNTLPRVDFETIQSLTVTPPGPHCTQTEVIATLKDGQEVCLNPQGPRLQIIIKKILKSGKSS
Chain of human CXCL10 (P02778 22-98): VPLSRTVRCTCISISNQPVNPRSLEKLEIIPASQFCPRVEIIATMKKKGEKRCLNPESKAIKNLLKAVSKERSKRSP
Chain of human CXCL4 (P02776 32-101): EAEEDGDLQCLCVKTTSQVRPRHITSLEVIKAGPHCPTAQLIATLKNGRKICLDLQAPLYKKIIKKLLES
Chain of human CXCL12 (P48061 22-93): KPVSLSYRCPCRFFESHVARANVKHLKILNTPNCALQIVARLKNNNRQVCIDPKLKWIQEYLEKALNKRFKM
Chain of human CXCL13 (O43927 23-109): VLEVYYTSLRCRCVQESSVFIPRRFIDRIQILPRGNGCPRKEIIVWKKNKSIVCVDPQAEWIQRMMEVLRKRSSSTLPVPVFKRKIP
Chain of rat CXCL3 (Q10746 33-101): as the sequence (Q6W5C0 32-100) above, with S1R, N9K, T18N, G52A, I57K, K60Q, I62L, G66D counted along it
Chain of rat CXCL1 (P14095 25-96): as the sequence (P12850 25-96) above, with I3V, M15V, L20F, L29M, S31P, L58M counted along it
Chain of human CXCL14 (O95715 35-111): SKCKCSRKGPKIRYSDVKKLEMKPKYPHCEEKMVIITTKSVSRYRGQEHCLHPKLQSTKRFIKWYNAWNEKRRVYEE
Chain of rat CXCL2 (P30348 32-100): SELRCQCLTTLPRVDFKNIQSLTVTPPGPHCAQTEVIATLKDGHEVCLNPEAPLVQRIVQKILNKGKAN

Row | Binder | Kd (mouse CXCL1) | Kd (mouse CXCL3) | Kd (mouse CXCL2) | Kd (rat CXCL2) | Kd (rat CXCL1) | Kd (rat CXCL3) | binding result (human CXCL13) | binding result (human CXCL16) | binding result (human CXCL17) | binding result (human CXCL10) | binding result (human CXCL12) | binding result (human CXCL4) | binding result (human CXCL14) | binding result (human CXCL1)
1 | B1 | ~0.2 nM | ~0.2 nM | ~0.2 nM | ~0.2 nM | ~0.2 nM | ~0.2 nM | no binding (tested: 20 µg/mL) | no binding (tested: 20 µg/mL) | no binding (tested: 20 µg/mL) | no binding (tested: 20 µg/mL) | no binding (tested: 20 µg/mL) | no binding (tested: 20 µg/mL) | no binding (tested: 20 µg/mL) | –
2 | B2 | – | – | – | – | – | – | – | – | – | – | – | – | – | binds
